Experimental findings from PMC3608632 are described below.

The target in assay [1] is hyperphosphorylated R-topo I (CK2-treated baculovirus-expressed recombinant human topo I) (human) (UniProt P11387).
Assay [2] deals with basal phosphorylated baculovirus-expressed recombinant human topo I (R-topo I) (human) (UniProt P11387). Conditions: scale: % of supercoiled plasmid converted to the relaxed form.
The target in assay [3] is hyperphosphorylated R-topo I (CK2-treated baculovirus-expressed recombinant human topo I) (human) (UniProt P11387). Conditions: scale: % of supercoiled DNA converted to the relaxed form.
In a further assay the target is p14ARF (ARF) (UniProt Q8N726). In words: anti-FLAG IP, ARF Western. Conditions: reference: wild-type full-length topo I (construct 6); sites S506.

Turning to “recombinant thioredoxin-human ARF fusion protein (from UniProt Q8N726 1-132) (natural protein)”, the non-covalent association of R-topo I with radiolabeled plasmid DNA (DNA co-immunoprecipitated with topo I; 75 mM NaCl, 4°C), ARF added at a 1:1 molar ratio; ~60% without ARF (% of input DNA) in assay [1] was found to be 80. The relaxation of supercoiled plasmid DNA by R-topo I with ARF added (about 40% without ARF) in assay [2] came to 50. The relaxation of supercoiled plasmid DNA by R-topo I with ARF added (∼70% without ARF) in assay [3] amounted to 100.

On to “topoisomerase I (topo I) (from UniProt P11387) S506A full-length topo I (construct 9)”, for which, in the assay with p14ARF (ARF), the “binding against the reference” value is “weaker”.
